The target of the experiment is NanH sialidase of Tannerella forsythia (wild type) (Tannerella forsythia 92A.2). The experiment is described as follows: SEC-MALS; NanH at 0.5 and 3.0 mg/ml on Superdex S200 10/300 in 50 mM sodium phosphate, 200 mM NaCl pH 7.4, ~20°C; self-association.

Substance “NanH sialidase of Tannerella forsythia (wild type) (enzyme)” displayed a percent of the protein as dimer of 90% and a stoichiometry N of 2.

Source of the values: paper PMC9472817, “Structural and functional characterisation of a stable, broad-specificity multimeric sialidase from the oral pathogen Tannerella forsythia” (Biochemical Journal, 2022).
